Literature values as cited in article PMC12609503.

Assays:
[1] = target: GnRH receptor (LN-CaP cells) (Homo sapiens) (UniProt P30968); test: cell binding assay
[2] = target: GnRH receptor (pituitary membrane) (Rattus norvegicus) (UniProt P30969); test: radioligand saturation binding
Sequence of UniProt P30969 (P30969 whole entry): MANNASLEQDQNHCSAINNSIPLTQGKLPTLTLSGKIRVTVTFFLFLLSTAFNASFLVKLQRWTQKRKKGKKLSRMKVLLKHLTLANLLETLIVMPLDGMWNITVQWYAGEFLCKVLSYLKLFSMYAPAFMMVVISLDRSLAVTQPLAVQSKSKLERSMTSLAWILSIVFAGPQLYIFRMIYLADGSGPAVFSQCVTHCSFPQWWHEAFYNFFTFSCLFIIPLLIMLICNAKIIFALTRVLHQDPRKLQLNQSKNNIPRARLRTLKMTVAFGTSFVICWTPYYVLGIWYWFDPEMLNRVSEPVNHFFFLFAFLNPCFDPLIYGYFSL

Sequence of UniProt P30968 (P30968 whole entry): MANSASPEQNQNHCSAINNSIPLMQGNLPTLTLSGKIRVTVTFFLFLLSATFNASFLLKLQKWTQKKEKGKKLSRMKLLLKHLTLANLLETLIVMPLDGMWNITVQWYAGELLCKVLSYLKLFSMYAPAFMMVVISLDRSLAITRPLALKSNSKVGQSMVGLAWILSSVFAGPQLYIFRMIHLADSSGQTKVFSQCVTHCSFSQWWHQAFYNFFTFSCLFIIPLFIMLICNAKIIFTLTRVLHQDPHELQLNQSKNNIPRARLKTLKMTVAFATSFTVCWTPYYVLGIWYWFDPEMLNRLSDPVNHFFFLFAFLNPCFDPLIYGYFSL

Kd [2]	Substance	Kd [1]
	99mTc-HYNIC-Ahx-DLys6-GnRH (from UniProt P01148)	42 nM
0.435 nM	125I-LHRH (from UniProt P01148)	
	99mTc-HYNIC-GABA-DLys6-GnRH (from UniProt P01148)	89 nM
